Where a chain is given by its changes, count along the chain named.

Experimental findings from paper PMC8196545 (Cell reports, 2021) are described below.

To fix the notation:
B1: c5237 (antibody, V domains shown)
VH: QVQLQESAPRLVKTSETLSLTCTVSGSHFYPYFYSWIRQSPGGKLQWIGRMYSTTGSMRTNPSLHTRVGMPLDHSRSQIGLTMSSMTAADTGIYYCVRDIMREFDSVDGSGGIYGGVDVWGRGTTVTVSS
VL: QFVLTQPPSVSGSPGKTVIISCTRSGGTFARNSVRWYLQRPGEIPTTVFFDGNRRASGIPDRFSASIGVSSTSASLTISGLTPEDEADYYCESSDGGHHVVFGGGTKVTVL
B2: c29323 (antibody, V domains shown)
VH: QVQLQESGPGLVRPSETLSLTCVVSGDSITRNYWSWLRQPPGKTLEWIGFMYDSGTVNYNPSLQSRVSISVDTSNNQFFLRLTSVTAADTAVYYCARHPSRGSDYDSATGDTYYYYYGMDVWGPGTSVVVSS
VL: DIQLTQSPPSLSASVGDRIVISCRATRDIGTSLNWYQQKPGQSPKLLIVAASTLESGVPSRFSAAGSATHFTLTISALQHDDVATYFCQQYLSLPLTFSGGTRVDLR
B3: c5392 (antibody, V domains shown)
VH: ELQLKESGPGLVKPSETLSLTCAVSGGPMCADWCFYYHWNWVRLSAEKGLEWMGRIHISGTAEYNPSFKGRATISLDISKNELSLTMTSLAAADTAVYFCARSGGNFHPTYFYMMDIWGRGTTVVVSS
VL: DIQMTQSPSTLYASLGETVTITCRASQNIKKWLAWYQMRPGRAPRLLIYMATYRHDADSARYIGSESGGEFTLTIKSLRPDDFGTFYCQQYGAQPWTFGQGTRLEVK
B4: c1174 (antibody, V domains shown)
VH: QVRLHQWGEGLLRPSDTLSLTCSLSGNVFYRTFFNWIRQSPGKGLEWIAEVSFTGDWTYNPSLKSRVTTYVDGFKYHVSLQMSSMTAADAGVYYCASGGGSFDVDSWGQGIRVTVSS
VL: EIVLTQTPLSSSVTLGQSASISCRSSQSLQHSNGNTYLSWFQQRPGQPPRLLIRKISNRFSEVPDRFSGSGSGTDFTLTIDRVEPEDVGTYYCVQATQFPWTFGQGTTVDIT
B5: c1134 (antibody, V domains shown)
VH: B4 VH with R31E, T54A, T58N, V78A, S97A, D105H
VL: B4 VL with T7A, S18A, R24T, S26N, Q27H, F60G, E62G, D75H
B6: c11422 (antibody, V domains shown)
VH: EARLVESGGGRVQPGGSLRLSCEASGFRFSSYSFNWVRQSPGKGLEWLAKISASPFGRSQINYAHSVEGRFIISRDNDGNSLRLQMNDLRGADTGVYYCARAPWQERNLDYNYAMDVWGQGTTVIVSS
VL: ELVLTQSPGTLSLSPGERATVSCRASQSLRRDSLAWYQQKPGHSPRLLIFAASNRVPGIPYRFSGSGSGTQFTLTIDKMEPEDFAVYYCQTYGSSPLYTFGQGTKLDIN
B7: c11465 (antibody, V domains shown)
VH: EVKLVESGGTQVQPGGSLRISCVGSGFRFSSYSFNWVRQAPGKGPEWVAYISASPFGRSKVTYAHSVEGRFIVSRDNDANSLYLQMTGLTRDDTAVYHCARAPYYEGNFQYNYAMDVWGLGTTVIVSS
VL: GVVLTQSPGTLSLSPGERATVSCRASQSLTRDSLVWYQQKPGQPPRLLIYGTSNRVPGIPDRFSGGGSGTQFTLTISRLEPEDFAVYYCQSYGLSPLYSFGQGTKLDIK
B8: c2518 (antibody, V domains shown)
VH: QVRLHQWGEGLLRPSDTLTLSCSLSGNVFYNTFFNWVRQSPGRGLEWIAEVSFAGEWTFNPSLRSRVTTQVDGFTYRVSLFLKSMTAADAGVYYCASGGGSFDVDSWGPGIRVTVSS
VL: EIVLTQTPLSSPVSLGQSASISCRSSQSLRHNNGNTYLSWFQQRPGQPPRLLIRKISDRFSGVPNRFSGSGAGTDFTLRIDRVEPEDVGTYYCLQATQFPWTFGQGTTVDIK
B9: c8540 (antibody, V domains shown)
VH: QVQLLQSGPEVKKPGASVKVSCKTSGYTFTSYAITWVRQAPGEGLEWLGWISPHSRTAKYAQKFQGRLTMTTDTSTATAYMDLRSLSPDDTAVYYCARRIYDWDIERARFDPWGQGTLVAVSS
VL: QSVLTQPPSVSADPGQRVTISCSGSSSNIGKNFVSWYQQLPGTAPKLVIYDNDRRPSGIPDRFSGSKSGTSATLGITGLQTGDEAAYYCATWDSGLNDGPVFGGGTRLTVL
B10: c5275 (antibody, V domains shown)
VH: QGQLVESGGGVVQPGTSLRLSCKASGFSFSNHVMHWVRQAPGKGLEWVAAIWDDGSNQYYRDSVKGRFTISRDNSKNTLFLQMSSLTVQDTAIYFCARRMSAVGTIFAYFNYGMDVWGRGTTVIVSS
VL: EVVLTQSPGTLSLSPGERGTLSCRASQHLSDSSLAWYQQKPGQAPRLLIYAASRRATGIPDRFSGSGSGTDFTLTISRLDPDDFAVYYCQHYGNSPVITFGQGTRLDIK
B11: c24148 (antibody, V domains shown)
VH: QVEVQESGPGLVKPSETLSLTCSVSGGSITGYYWSWIRQAPGKGLEWIGFISPGGSARYNPSLKSRVTISKDASTNQVSLRLISVTASDTAVYFCVRDGAAGNNWGYNYYGMDVWGQGTTVTVSS
VL: DIQLTQSPSTLSASIGDRVTITCRASQSISVWLAWYQQKPGKAPNLLIYRASTLDSGVPSRFSGSGSGTEFTLTISSLQPDDLGTYYCQHYDTPSRTFGPGTKVEIT
B12: c5338 (antibody, V domains shown)
VH: HVRLEQWGPGLLKPSETLSLSCVVHGESFDPYSWTWIRQSPKMGPQWLGEIRPFGETVYNPSLSGRLSLSRDNSKRLISLRLTSVSAADSAVYFCARGPVIYEVPYFWYRGLNVWGPGTTVVVST
VL: DVVVTQSPLSVSVTPGESATILCKSSHSLRHDNGMHYLDWYLQKPGQSPQLLIYLSSNRASGVPDRFIGSGSGTDFTLKISRVEAEDVGMYFCMQGRQDPRIFGRGTRLEIK
B13: c9488 (antibody, V domains shown)
VH: QVQLVQSGSEVKKPGASVKVSCKASDYTFPNFGISWLRQAPGQGLEWMGWIRGSDGETNYAQKFKDRVTLTTERSRGTAYMELRSLISDDTAVYYCARDLKWDCSKRGCPDYQWFDIWGQGTLVTVSS
VL: DVVMTQSPLSLPVTLGQPASISCISSHSLVYTDGNTYLAWFQQRPGQSPRRLIYTVSKRDSGVPDRFSGSGSGTDFTLKISRVEAEDVGIYFCMQGRHWPYTFGQGTTLEIK
B14: c9497 (antibody, V domains shown)
VH: QVQLVQSGAEVKKPGSSVKVSCKASGGSFSDYGISWVRQAPGQGLEWMGGIIPGLETTKFAQGLQGRLTMTADESSTTAYMVLTRLRSQDTAVYYCATTGQQNDYYSSGTSYKLNYYFGMDVWGQGTTVTVSS
VL: QSVLTQPPSSSGTPGQRVTITCSGGSSNIETNSVNWYQQLPGAAPKTVISATHQRPSGVPDRFSASKSGASASLAISGLQSEDEADYYCAVWDDSLHAWVFGGGTKVTVL
B15: c8395 (antibody, V domains shown)
VH: AVQFLQSGAEVKKPGESLKISCQDRGYGFNDYWIAWVRQMPGKGLEWMGLIYPDDSDTRYSPSFQGQVTILADKSINTAYLQWNSLKASDSAIYYCARLMVVDERSENTFDIWGQGTVVTVFS
VL: SSGLAQSPSLSVSPGQTATVTCSGDPLVNHFASWYQQQPGQSPILVIYQDNQRPSGIPERFSGSKTGNTATLTIGETQAADEADYFCQSWDITTAGMIFGGGTKLTVL

The target of this experiment is HIV-1 NL4-3 Env on infected cells (HIV-1 group M subtype B, NL4-3 (pNL4-3 …, strain)).
B1: the binding result was “binds”.

As to B2, the binding result is “binds”.

With B3, the binding result is on record as “binds”.

For B4, the binding result is given as “binds”.

In the case of B5, the binding result is reported as “binds”.

With B6, the binding result was “binds”.

Turning to B7, the binding result is given as “binds”.

Regarding B8, the binding result was “binds”.

Regarding B9, the binding result is given as “binds”.

B10: the binding result was “binds”.

Regarding B11, the binding result is given as “binds”.

On to B12, for which the binding result was “binds”.

With B13, the binding result was “binds”.

B14: the binding result is on record as “binds”.

For the molecule B15, the binding result is recorded as “binds”.
